Target: the molecule itself
Assay: cross-linking

B1: APOBEC4 fused to three C-terminal HA-tags (A4-HA) (natural protein, human, UniProt Q8WW27 1-367, looked up)
chain: MEPIYEEYLANHGTIVKPYYWLSFSLDCSNCPYHIRTGEEARVSLTEFCQIFGFPYGTTFPQTKHLTFYELKTSSGSLVQKGHASSCTGNYIHPESMLFEMNGYLDSAIYNNDSIRHIILYSNNSPCNEANHCCISKMYNFLITYPGITLSIYFSQLYHTEMDFPASAWNREALRSLASLWPRVVLSPISGGIWHSVLHSFISGVSGSHVFQPILTGRALADRHNAYEINAITGVKPYFTDVLLQTKRNPNTKAQEALESYPLNNAFPGQFFQMPSGQLQPNLPPDLRAPVVFVLVPLRDLPPMHMGQNPNKPRNIVRHLNMPQMSFQETKDLGRLPTGRSVEIVEITEQFASSKEADEKKKKKGKK
notes: also called A4-3xHA; pA4-HA; not shown: 3xHA, C-terminal, kept
  stoichiometry N: 2
